Measurements published in patent US20220033501A1 (SHANGHAI PHARMAEXPLORER, published 2022).
Numbering of substitutions follows the chain as printed. Values belong to the binder of their own block, whether it stands above or below them.

Key:
[1] = molecular target: T1, human TIM-3 on CHOK1 stable cell line (CHOK1-hTIM-3) (human, UniProt Q8TDQ0 22-301); assay: FACS, CHOK1-hTIM-3 cells, 40 nM antibody
T1 sequence: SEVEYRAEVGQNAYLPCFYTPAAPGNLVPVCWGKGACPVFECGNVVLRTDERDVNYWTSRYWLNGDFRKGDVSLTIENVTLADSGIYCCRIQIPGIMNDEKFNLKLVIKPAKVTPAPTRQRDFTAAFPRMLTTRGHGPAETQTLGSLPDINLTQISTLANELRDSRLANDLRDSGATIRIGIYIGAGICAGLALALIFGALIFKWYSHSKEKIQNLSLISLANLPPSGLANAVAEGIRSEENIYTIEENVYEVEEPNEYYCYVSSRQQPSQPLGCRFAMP

[2] = molecular target: T2, monkey TIM-3 on CHOK1 stable cell line (CHOK1-cTIM-3) (monkey); assay: FACS, CHOK1-cTIM-3 cells, 0.064 nM antibody
T2 chain: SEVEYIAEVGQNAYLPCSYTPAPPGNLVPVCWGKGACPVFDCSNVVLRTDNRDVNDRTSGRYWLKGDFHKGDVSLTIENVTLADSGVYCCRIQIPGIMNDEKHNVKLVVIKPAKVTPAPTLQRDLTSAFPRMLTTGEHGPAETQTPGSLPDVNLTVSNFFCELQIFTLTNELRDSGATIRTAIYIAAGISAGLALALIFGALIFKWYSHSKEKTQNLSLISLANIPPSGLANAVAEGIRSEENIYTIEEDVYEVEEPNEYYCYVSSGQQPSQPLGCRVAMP

[3] = molecular target: T3, human TIM-3 protein with hFc tag (hTIM-3-hFc protein) (human, UniProt Q8TDQ0 22-200); assay: ELISA, coated hTIM-3-hFc; antibody 0.0001 nM
T3 construct: also called immunogen 1; human TIM-3 extracellular domain protein; not shown: human IgG Fc fragment (hFc) of the pCpC vector
T3 sequence: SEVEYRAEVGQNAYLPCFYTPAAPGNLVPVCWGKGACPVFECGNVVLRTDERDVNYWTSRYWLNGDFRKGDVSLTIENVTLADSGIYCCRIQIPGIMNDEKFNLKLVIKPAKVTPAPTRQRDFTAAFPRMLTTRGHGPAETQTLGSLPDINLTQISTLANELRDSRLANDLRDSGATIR
Excerpt: (§1) The amino acid sequence 22-200 of the extracellular domain of the human TIM-3 protein described in the step of Example 1 (as shown in SEQ ID NO. 71 in the sequence listing) was cloned into a pCpC vector having a human IgG Fc fragment (hFc), and transfected into HEK293 cells. The cell culture medium was collected, and purified to obtain the human TIM-3 protein with hFc tag (herein referred to as hTIM-3-hFc protein). The amino acid sequence 22-201 of the extracellular domain of the monkey TIM-3 protein (as shown in SEQ ID NO. 72 in the sequence listing) was cloned into a pCpC vector having a human IgG Fc fragment (hFc), and transfected into HEK293 cells. The cell culture medium was collected, and purified to obtain the monkey TIM-3 protein with hFc tag (herein referred to as cTIM-3-hFc protein). […] The cell culture medium was collected, and purified to obtain the murine TIM-3 protein with hFc tag (herein referred to as mTIM-3-hFc protein). Purified human, monkey, and mouse TIM-3 extracellular domain proteins (hTIM-3-hFc, cTIM-3-hFc, and mTIM-3-hFc) were diluted with PBS to a final concentration of 1.0 μg/ml and then added to a 96-well ELISA plate with 100 μl per well. The plate was sealed with plastic film and incubated overnight at 4° C. The plate was washed 4 times with the plate washing solution (PBS+0.01% Tween20) on the next day, and added with the blocking solution (PBS+0.01% Tween20+1% BSA) and sealed at room temperature for 1-2 hours. The blocking solution was poured out. 50-100 μl of the antibody sample to be tested was added to each well. The plate was incubated at 37° C. for 1-2 hours, and washed 2-3 times with plate washing solution (PBS+0. 01% Tween20). HRP (horseradish peroxidase) labeled secondary antibody was added. The plate was incubated at 37° C. for 1-2 hours, and washed 2-3 times with plate washing solution (PBS+0. 01% Tween20). […] of TMB substrate was added to each well. After incubated at room temperature for 15-30 minutes, the plate was added with […] stop solution (1.0N HCl) to each well. An ELISA plate reader (TiterMax 384plus, Molecular Device) was used to read the A450 nm value.

[4] = molecular target: T3, human TIM-3 protein with hFc tag …; assay: ELISA, coated hTIM-3-hFc; antibody 0.6667 nM
Excerpt: as §1

[5] = molecular target: T3, human TIM-3 protein with hFc tag …; assay: ELISA, coated hTIM-3-hFc; antibody 0 nM (blank)
Excerpt: as §1

[6] = molecular target: T4, monkey TIM-3 protein with hFc tag (cTIM-3-hFc protein) (monkey; human); assay: ELISA, coated cTIM-3-hFc; antibody 66.667 nM
T4 construct: Made in HEK293 cells; also called monkey TIM-3 extracellular domain protein; not shown: human IgG Fc fragment (hFc) of the pCpC vector
T4 chain: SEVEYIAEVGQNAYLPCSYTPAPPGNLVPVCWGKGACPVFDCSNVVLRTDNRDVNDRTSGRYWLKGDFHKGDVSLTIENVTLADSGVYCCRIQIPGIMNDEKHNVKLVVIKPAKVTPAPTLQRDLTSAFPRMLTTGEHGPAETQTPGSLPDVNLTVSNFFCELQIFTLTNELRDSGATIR
Excerpt: as §1

[7] = molecular target: T5, murine TIM-3 protein with hFc tag (mTIM-3-hFc protein) (mouse; human, UniProt Q8VIM0 29-191); assay: ELISA, coated mTIM-3-hFc; antibody 0.0001 nM
T5 construct: Made in HEK293 cells; also called mouse TIM-3 extracellular domain protein; not shown: human IgG Fc fragment (hFc) of the pCpC vector
T5 chain: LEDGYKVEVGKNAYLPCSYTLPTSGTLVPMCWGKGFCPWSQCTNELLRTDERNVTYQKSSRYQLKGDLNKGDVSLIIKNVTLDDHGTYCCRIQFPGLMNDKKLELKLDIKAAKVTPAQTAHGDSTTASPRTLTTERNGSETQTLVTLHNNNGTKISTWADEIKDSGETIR
Excerpt: as §1

[8] = molecular target: T4, monkey TIM-3 protein with hFc tag …; assay: ELISA, coated cTIM-3-hFc; antibody 0 nM (blank)
Excerpt: as §1

Mean fluorescence intensity [1]: 147
Mean fluorescence intensity [2]: 30.6
B1: 57F4E5 fully human TIM-3 antibody (human IgG4, kappa) (antibody, V domains shown)
VH: EVQLVESGGGLVQPGGSLRLSCAASGFTFSSYWMSWVRQAPGKGLEWVANIKQDGSEKYYVDSVKGRFTISRDSAKNSLYLQMNSLRAEDTAMYFCARDSNFFDYWGQGTLVTVSS
VL: ETVMTQSPATLSVSPGERATLSCRASQSVSSNLAWYQRKPGQAPRLLIYFSSTRATGIPARFSGSGSGTEFTLTISSLQSEDFAVYYCQQYNNWPLTFGGGTKVEIK

Mean fluorescence intensity [1]: 218
Mean fluorescence intensity [2]: 46.4
B2: 134H3G6 fully human TIM-3 antibody (human IgG4, kappa) (antibody, V domains shown)
VH: EVQLVESGGGLVQPGGSLRLSCAASGFTFSNSWMTWVRQAPGKGLEWVANIKQAGTEKYYVDSVKGRFTISRDNAKNSLYLQMNSLRAEDTAVYYCNSGSNYFDYWGQGTLVTVSS
VL: B1 VL with T2I, S26R, S28N, V29F, S30Y, R38Q, F50G, S51A

OD450 [3]: 0.13
OD450 [4]: 3.41
OD450 [5]: 0.12
OD450 [6]: 3.47
OD450 [7]: 0.64
OD450 [8]: 0.59
B3: 39E5H1 (TIM-3 antibody purified from hybridoma, chimeric antibody of Example 2) (antibody, V domains shown)
VH: EVQLVESGGGLVQPGGSLRLSCAASGFTFSSYWMSWVRQAPGKGLEWVANIKRGGSERYYVDSVKGRFTISGDNAKNSVYLQMNSLRAEDTAVYYCARGSNWFDPWGQGTLVTVSS
VL: B1 VL with T10I, S30Y, R38Q, P40L, F50D, S51A, L96I, G100Q, K103R, V104L
notes: From hybridoma of Harbour H2L2 transgenic mice: human variable regions, rat constant regions

Mean fluorescence intensity [1]: 257
Mean fluorescence intensity [2]: 44
B4: 18D2H2 fully human TIM-3 antibody (human IgG4, kappa) (antibody, V domains shown)
VH: EVQLVESGGDLVQPGGSLRLSCAASGFTFSTYWMTWVRQAPGRGLEWVANIKQDGSAKYYVDSVKGRFTLSRDDAKNSLYLQMNSLRAEDTAVYYCARGSNWFDYWGQGTLVTVSS
VL: B1 VL with S26N, S28N, S30Y, R38Q, F50D, S51A, I58F

OD450 [3]: 0.12
OD450 [4]: 1.33
OD450 [5]: 0.11
OD450 [6]: 3.44
OD450 [7]: 0.64
OD450 [8]: 0.55
B5: 18D2H2 (TIM-3 antibody purified from hybridoma, chimeric antibody of Example 2) (antibody, V domains shown)
VH: B4 VH
VL: B1 VL with S26N, S28N, S30Y, R38Q, F50D, S51A, I58F
notes: as for B3

OD450 [3]: 0.13
OD450 [4]: 3.31
OD450 [5]: 0.12
OD450 [6]: 3.47
OD450 [7]: 0.63
OD450 [8]: 0.56
B6: 57F4E5 (TIM-3 antibody purified from hybridoma, chimeric antibody of Example 2) (antibody, V domains shown)
VH: B1 VH
VL: B1 VL
notes: as for B3

OD450 [3]: 0.12
OD450 [4]: 0.69
OD450 [5]: 0.12
OD450 [6]: 3.43
OD450 [7]: 0.64
OD450 [8]: 0.55
B7: 134H3G6 (TIM-3 antibody purified from hybridoma, chimeric antibody of Example 2) (antibody, V domains shown)
VH: B2 VH
VL: B1 VL with T2I, S26R, S28N, V29F, S30Y, R38Q, F50G, S51A
notes: as for B3

OD450 [3]: 0.12
OD450 [4]: 3.41
OD450 [5]: 0.12
OD450 [6]: 3.52
OD450 [7]: 0.62
OD450 [8]: 0.58
B8: 34B6D8 (TIM-3 antibody purified from hybridoma, chimeric antibody of Example 2) (antibody, V domains shown)
VH: B3 VH with S31T, S35T, G44R, R53Q, S56G, E57D, R58K, G72T, V79L
VL: EIVMTQSPATLSMSPGERATLSCRASQSVYDNLAWYQQKPGQAPRLLIYGASTRATGIPARFSGSGSGTEFTLTISSLQSEDFALYYCQQYTHWPITFGQGTRLEIK
notes: as for B3

Mean fluorescence intensity [1]: 283
Mean fluorescence intensity [2]: 29.9
B9: 215A8F2 fully human TIM-3 antibody (human IgG4, kappa) (antibody, V domains shown)
VH: QVQLQQWGAGLLKPSETLSLTCTVYGGSFSGYYWNWIRQPPGKGLEWLGEINHSGSTNYNPSLKRRVTISVDTSKNQFSLKLSSVTAADTAVYYCARVYYYGPFDFWGQGTLVTVSS
VL: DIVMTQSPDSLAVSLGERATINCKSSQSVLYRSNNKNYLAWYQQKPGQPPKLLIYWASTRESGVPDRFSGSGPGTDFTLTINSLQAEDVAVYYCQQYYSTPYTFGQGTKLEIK

OD450 [3]: 0.12
OD450 [4]: 3.06
OD450 [5]: 0.11
OD450 [6]: 3.49
OD450 [7]: 0.63
OD450 [8]: 0.57
B10: 215A8F2 (TIM-3 antibody purified from hybridoma, chimeric antibody of Example 2) (antibody, V domains shown)
VH: B9 VH
VL: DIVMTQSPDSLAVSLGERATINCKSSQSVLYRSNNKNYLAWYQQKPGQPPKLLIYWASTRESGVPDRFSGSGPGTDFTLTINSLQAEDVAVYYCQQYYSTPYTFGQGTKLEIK
notes: as for B3

Mean fluorescence intensity [1]: 313
Mean fluorescence intensity [2]: 17.2
B11: 7A4F10 fully human TIM-3 antibody (human IgG4, kappa) (antibody, V domains shown)
VH: EVQLLESGGGLVQPGGSLRLSCAASGFTFRTHLISWVRQAPGKGLEWVAAITGSGGSTYYADSVKGRFIISRDNSKNTLFLQMNSLRAEDTAVYYCAKDGGSGSYDDFWGQGTLVTVSS
VL: ETVLTQSPVTLSLSPGERATLSCRASQSVGSYLAWYQQKPGQAPRLLIYDASNRATGIPARFSGSGSGTDFTLTISSLEPEDFAVYYCQQRSNWPPTFGQGTKVEIK

OD450 [3]: 0.12
OD450 [4]: 0.86
OD450 [5]: 0.11
OD450 [6]: 3.46
OD450 [7]: 0.65
OD450 [8]: 0.54
B12: 7A4F10 (TIM-3 antibody purified from hybridoma, chimeric antibody of Example 2) (antibody, V domains shown)
VH: B11 VH
VL: B11 VL
notes: as for B3
